Experimental findings from US7579150B1, “Mobile RNA acts as a signal to regulate plant growth and development” (Iowa State University Research Foundation, Inc., priority 2004, dated 2009) are described below.

Data set [1] has as its target T1, POTH1 (Solanum tuberosum).
T1 chain: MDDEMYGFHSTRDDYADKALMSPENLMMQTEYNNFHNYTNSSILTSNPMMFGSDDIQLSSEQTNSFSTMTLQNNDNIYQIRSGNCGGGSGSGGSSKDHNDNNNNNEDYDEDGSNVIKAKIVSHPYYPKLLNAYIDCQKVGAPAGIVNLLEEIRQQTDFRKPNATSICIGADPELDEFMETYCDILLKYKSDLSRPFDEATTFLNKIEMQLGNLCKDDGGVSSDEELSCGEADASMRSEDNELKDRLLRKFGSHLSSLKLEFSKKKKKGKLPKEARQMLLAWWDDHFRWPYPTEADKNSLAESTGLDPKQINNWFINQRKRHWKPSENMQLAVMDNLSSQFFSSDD
The data set can be described thus: cell_activity. To be noted: tobacco protoplasts, GUS reporter.

Data set [2] has as its target T2, StBEL-05 (Solanum tuberosum).
T2 chain: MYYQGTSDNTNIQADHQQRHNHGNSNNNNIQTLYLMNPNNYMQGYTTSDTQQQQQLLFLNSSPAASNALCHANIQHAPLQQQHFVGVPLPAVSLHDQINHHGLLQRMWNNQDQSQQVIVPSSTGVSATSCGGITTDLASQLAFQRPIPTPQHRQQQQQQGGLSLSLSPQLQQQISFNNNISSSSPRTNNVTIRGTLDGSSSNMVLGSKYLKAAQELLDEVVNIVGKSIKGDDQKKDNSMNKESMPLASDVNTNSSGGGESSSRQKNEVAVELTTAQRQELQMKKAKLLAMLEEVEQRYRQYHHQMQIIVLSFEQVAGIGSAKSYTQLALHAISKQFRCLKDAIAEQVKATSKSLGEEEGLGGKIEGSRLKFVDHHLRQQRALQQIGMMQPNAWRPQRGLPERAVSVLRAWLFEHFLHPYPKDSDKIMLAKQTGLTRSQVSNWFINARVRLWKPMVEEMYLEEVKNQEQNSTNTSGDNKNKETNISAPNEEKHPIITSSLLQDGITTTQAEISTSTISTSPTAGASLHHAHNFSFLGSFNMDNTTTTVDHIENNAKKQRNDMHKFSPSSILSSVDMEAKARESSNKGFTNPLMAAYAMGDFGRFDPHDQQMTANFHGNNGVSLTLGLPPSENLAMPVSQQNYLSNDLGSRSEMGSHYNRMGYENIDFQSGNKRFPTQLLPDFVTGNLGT
The data set can be described thus: cell_activity. The settings on record: tobacco protoplasts, GUS reporter.

Data set [3] deals with T3, StBEL-05/POTH1 heterodimer (Solanum tuberosum).
T3 chain 1: T2 chain
T3 chain 2: T1 chain
Description: cell_activity. The settings on record: tobacco protoplasts, GUS reporter.

Data set [4] has as its target POTH1 (full-length) in pBridge, fused to the GAL4 DNA-binding domain (Solanum tuberosum). Description: yeast two-hybrid, quantitative beta-galactosidase assay; reference: full-length construct StBEL-05 (pAD-05).
Data set [5] has as its target T4, GAD protein alone (GAL4 activation domain) (UniProt P04386 768-881, limits assumed).
T4 construct: domain: GAD; Negative control of the immunoprecipitation assay
T4 sequence (looked up): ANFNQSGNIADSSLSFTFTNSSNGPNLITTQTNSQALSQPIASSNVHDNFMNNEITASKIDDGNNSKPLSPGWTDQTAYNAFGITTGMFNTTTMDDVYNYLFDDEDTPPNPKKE
The data set can be described thus: immunoprecipitation of in vitro translated 35S-labelled proteins with anti-GAD antibodies. The procedure:
(§1) In vitro binding experiments were performed as described by Ni et al., "PIF3, a Phytochrome-Interacting Factor Necessary for Normal Photoinduced Signal Transduction, is a Novel Basic Helix-Loop-Helix Protein," *Cell* 95:657-667 (1998), which is hereby incorporated by reference in its entirety. The full-length sequence for POTH1 was cloned into a pET17b/GAD fusion cassette and transcribed under the control of the T7 promoter. The BEL cDNAs were cloned into pGEM11Z vectors and were transcribed under the control of the T7 promoter. ^35S-methionine labeled bait and prey proteins were synthesized using the TnT in vitro transcription-translation kit (Promega) according to the manufacturer's protocols. Each 50 µl TnT reaction contained 2.0 µg of template plasmid DNA and […] (20 µCi) of labeled ^35S-methionine. The POTH1:GAD/BEL complex was immunoprecipitated with anti-GAD antibodies (Santa Cruz Biotechnology, CA). The proteins from the pellet (one-half the fraction) and for the prey (one-fourth of the reaction volume) were resolved on a 10% SDS-PAGE gel and visualized by autoradiography.

The target in data set [6] is T5, GAD:POTH1 fusion protein (full-length POTH1 fused to the GAL4 activation domain) (Solanum tuberosum, 35S-methionine labelled (in vitro translation)).
T5 construct: In vitro transcribed/translated bait of the immunoprecipitation assay; no 35S label there; also called POTH1:GAD
T5 chain: T1 chain
Description: immunoprecipitation of in vitro transcribed/translated proteins. Here is the method: as §1

For data set [7], the target named is T6, pBHD9, first amino-terminal 114 aa of POTH1 in pBridge (GAL4 DNA-binding domain fusion) (Solanum tuberosum).
T6 construct: also called pBDH9
Description: in vitro binding protocol (immunoprecipitation of in vitro translated proteins).

For data set [8], the target named is T3, StBEL-05/POTH1 heterodimer. Description: EMSA; deduced consensus TGA(C/G)(T/A)TGAC. To be noted: tags: GST cleaved by Factor Xa.
Data set [9] has as its target T1, POTH1. The data set can be described thus: EMSA. To be noted: tags: GST fusion from pGEX-5X-2, GST cleaved by Factor Xa. Background: Mobility shift assays separate free from complexed probe on a gel.
Data set [10] addresses T2, StBEL-05. The data set can be described thus: EMSA. To be noted: tags: GST fusion from pGEX-5X-2, GST cleaved by Factor Xa.
Data set [11] deals with T5, GAD:POTH1 fusion protein (full-length …). The data set can be described thus: co-immunoprecipitation of in vitro translated 35S-labelled proteins with anti-GAD antibodies, SDS-PAGE and autoradiography. The procedure: as §1
The target in data set [12] is T7, StBEL-05 in pBridge (GAL4 DNA-binding domain fusion) (Solanum tuberosum).
T7 construct: Range derived as for m2
The data set can be described thus: yeast two-hybrid, reciprocal orientation.

Bounds are passed on as bounds.

Consider ga20ox1 promoter reporter (980 bp), for which the activity is more than 50 % repression with POTH1 [1], more than 50 % repression in the data set with StBEL-05 [2] and 80 % repression in [3].

In the case of “pAD5-1, StBEL-05 deletion construct in pGAD (GAL4 activation domain fusion)”, in data set [4], the decrease in the induction of the lacZ marker (beta-galactosidase activity) relative to the full-length construct, StBEL-05 was 55%.

B1: StBEL-13 protein synthesized in vitro from pGEM11Z (other)
chain: MVMGGGASSQQLGYAKNHTPNVAESMQLFLMNPQPRSPSPSPPNSTSSTLHMLLPNPSSTSTLQGFPNPAEGSFGQFITWGNGGASAATATHHLNAQNEIGGVNVVESQGLSLSLSSSLQHKAEELQMSGEAGGMMFFNQGGSSTSGQYRYKNLNMGGSGVSPNIHQVHVGYGSSLGVVNVLRNSKYAKAAQELLEEFCSVGRGKLKKTNNKAAANNPNTNPSGANNEASSKDVPTLSAADRIEHQRRKVKLLSMVDEVDRRYNHYCEQMQMVVNSFDLVMGFGTAVPYTALAQKAMSRHFRCLKDAIGAQLKQSCELLGEKDAGNSGLTKGETPRLKMLEQSLRQQRAFHQMGMMEQEAWRPQRGLPERSVNILRAWLFEHFLHPYPSDADKHLLARQTGLSRNQVSNWFINARVRLWKPMVEDMYQQEAKDEDGDGDEKSQSQNSGNNIIAQTPTPNSLTNTSSTNMTTTTAPTTTTALAAAETGTAATPITVTSSKRSQINATDSDPSLVAINSFSENQATFPTNIHDPDDCRRGNLSGDDGTTTHDHMGSTMIRFGTTAGDVSLTLGLRHAGNLPENTHFFG
modifications: 35S-methionine labelled (in vitro translation)
notes: BEL cDNA cloned into pGEM11Z under the T7 promoter; also called p11Z-13
As for B1, the binding result in data set [5] was “no binding”; in data set [6], “binds”.

B2: StBEL-05 protein synthesized in vitro from pGEM11Z (other)
chain: T2 chain
modifications: 35S-methionine labelled (in vitro translation)
notes: BEL cDNA cloned into pGEM11Z under the T7 promoter; also called p11Z-5
Turning to B2, the binding result in data set [7] and in data set [5] was “no binding” in each case.

B3: P1 binding site oligo (dsDNA)
DNA 1: TTGACTTGAC
DNA 2: GTCAAGTCAA
B3: the binding result (in [8]; with POTH1 [9]; with StBEL-05 [10]) was “binds” in each case.

B4: StBEL-30 protein synthesized in vitro from pGEM11Z (other)
chain: MATYFPSPNNQRDADQTFQYFRQSLPESYSEASNAPENMMVFMNYSSSGAYSDMLTGTSQQQHNCIDIPSIGATPFNTSQQEILSNLGGSQMGIQDFSSWRDSRNEMLADNVFQVAQNVQGQGLSLSLGSNIPSGIGISHVQSQNPNQGGGFNMSFGDGDNSQPKEQRNADYFPPDNPGRDLDAMKGYNSPYGTSSIARTIPSSKYLKAAQYLLDEVVSVRKAIKEQNSKKELTKDSRESDVDSKNISSDTPANGGSNPHESKNNQSELSPTEKQEVQNKLAKLLSMLDEIDRRYRQYYHQMQIVVSSFDVVAGEGAAKPYTALALQTISRHFRCLRDAICDQIRASRRSLGEQDASENSKAIGISRLRFVDHHIRQQRALQQLGMMQQHAWRPQRGLPESSVSVLRAWLFEHFLHPYPKDSDKIMLARQTGLTRSQVSNWFINARVRLWKPMVEEMYKEEAGDAKIDSNSSSDVAPRLATKDSKVEERGELHQNAASEFEQYNSGQILESKSNHEADVEMEGASNAETQSQSGMENQTGEPLPAMDNCTLFQDAFVQSNDRFSEFGSFGSGNVLPNGVSLTLGLQQGEGSNLPMSIETHVSYVPLRADDMYSTAPTTMVPETAEFNCLDSGNRQQPFWLLPSAT
modifications: 35S-methionine labelled (in vitro translation)
notes: BEL cDNA cloned into pGEM11Z under the T7 promoter; also called p11Z-30
Consider B4, for which the binding result in data set [11] is “binds”; in [5], “no binding”.

B5: pBHD9 construct (first 114 aa of POTH1) cloned into the pGAD vector (GAL4 activation domain fusion) (other, not shown: large carriers)
chain: MDDEMYGFHSTRDDYADKALMSPENLMMQTEYNNFHNYTNSSILTSNPMMFGSDDIQLSSEQTNSFSTMTLQNNDNIYQIRSGNCGGGSGSGGSSKDHNDNNNNNEDYDEDGSN
notes: also called pBDH9 construct in pGAD
As for B5, the binding result in data set [12] is listed as “no binding”.
